Laboratory results reported in the supplement of paper PMC9233669.
This sample holds only a part of the variants without activity.

Columns and labels:
biotinyl-Leu-oxazolone = assay: self-aminoacylation, catalytic enhancement (BLO) (fold over background); higher = more active; k-Seq, kA / k0A0; sequences stand for … in GGGAAUGGAUCCACAUCUACGAAUUC…UUCACUGCAGACUUGACGAAGCUG
Procedure, shortened: (§1)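 The uncatalyzed rate is the low-activity peak of a bimodal Gaussian fit, and catalytic enhancement is median kA divided by it. The kA values came from pseudo-first-order fits, with 1000 bootstraps, of per-sequence fraction reacted measured by streptavidin capture, triplicate qPCR and Illumina sequencing. Mutagenized RNA pools with a 21-nt variable region (0.43 μM) were reacted with each biotinyl-aminoacyl-oxazolone at 2–1250 μM in 50 μL HEPES/NaCl/KCl/MgCl2/CaCl2 buffer with 5% acetonitrile, pH 6.9–7.0, for 90 minutes at room temperature.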

biotinyl-Trp-oxazolone = assay: self-aminoacylation, catalytic enhancement (BWO) (fold over background); higher = more active; k-Seq, kA / k0A0; sequences stand for … in GGGAAUGGAUCCACAUCUACGAAUUC…UUCACUGCAGACUUGACGAAGCUG
Procedure, shortened: as §1

biotinyl-Phe-oxazolone = assay: self-aminoacylation, catalytic enhancement (BFO) (fold over background); higher = more active; k-Seq, kA / k0A0; sequences stand for … in GGGAAUGGAUCCACAUCUACGAAUUC…UUCACUGCAGACUUGACGAAGCUG
Procedure, shortened: as §1

biotinyl-Val-oxazolone = assay: self-aminoacylation, catalytic enhancement (BVO) (fold over background); higher = more active; k-Seq, kA / k0A0; sequences stand for … in GGGAAUGGAUCCACAUCUACGAAUUC…UUCACUGCAGACUUGACGAAGCUG
Procedure, shortened: as §1

biotinyl-Ile-oxazolone = assay: self-aminoacylation, catalytic enhancement (BIO) (fold over background); higher = more active; k-Seq, kA / k0A0; sequences stand for … in GGGAAUGGAUCCACAUCUACGAAUUC…UUCACUGCAGACUUGACGAAGCUG
Procedure, shortened: as §1

biotinyl-Met-oxazolone = assay: self-aminoacylation, catalytic enhancement (BMO) (fold over background); higher = more active; k-Seq, kA / k0A0; sequences stand for … in GGGAAUGGAUCCACAUCUACGAAUUC…UUCACUGCAGACUUGACGAAGCUG
Procedure, shortened: as §1

Sequence | self-aminoacylation (biotinyl-Leu-oxazolone) | self-aminoacylation (biotinyl-Trp-oxazolone) | self-aminoacylation (biotinyl-Phe-oxazolone) | self-aminoacylation (biotinyl-Val-oxazolone) | self-aminoacylation (biotinyl-Ile-oxazolone) | self-aminoacylation (biotinyl-Met-oxazolone)
AUUACCCCGGUCUUCGAGUGA [Fam2.1 aminoacylation ribozyme variant] | 4.72 | 6.46 | 29.3 | 3.4 | 3.2 | 4.71
CCACAGUUCAAGCAAUCGGCC [Fam1B.1 aminoacylation ribozyme variant] | 2.6 | 3.18 | 0.924 | 3.95 | 2.11 | 2.66
AUUACCAUGGUAAUCGAGUGA [Fam2.1 aminoacylation ribozyme variant] | 8.44 | 10.7 | 50.3 | 3.89 | 3.78 | 8.72
ACUCACCUAGGUCAUCGGCUG [Fam2.2 aminoacylation ribozyme variant] | 1.31 | 2.35 | 7.96 | 3.01 | 2.1 | 2
CCACACUUCAACCAAUGGGUC [Fam1B.1 aminoacylation ribozyme variant] | 0.593 | 0.377 | 0.603 | 0.759 | 0.685 | 0.499
AUUCACCUAGGUAGUCGGGUG [Fam2.2 aminoacylation ribozyme variant] | 3.89 | 3.31 | 15.8 | 2.35 | 2.02 | 3.28
CUACUUCAAACAGUCGGUCUA [Fam1A.1 aminoacylation ribozyme variant] | 0.817 | 0.576 | 0.734 | 0.893 | 0.938 | 0.856
UUUACCUUGGUCAUCGAGUGA [Fam2.1 aminoacylation ribozyme variant] | 5.86 | 8.55 | 18.6 | 4.04 | 3.93 | 5.9
AUUCUCCUAGGUCAUGGGGUG [Fam2.2 aminoacylation ribozyme variant] | 12.5 | 8.92 | 78.8 | 5.64 | 5.81 | 9.56
AUUACCCUGGACAGCGAGUGA [Fam2.1 aminoacylation ribozyme variant] | 4.19 | 2.52 | 10.9 | 2.12 | 2.24 | 3.3
AUUACCCUGGGCAUCGAGCGA [Fam2.1 aminoacylation ribozyme variant] | 0.813 | 1.43 | 7.68 | 1.48 | 1.26 | 1.08
UUUCACCCAGGUCAUCGGGUG [Fam2.2 aminoacylation ribozyme variant] | 4.54 | 5.64 | 35.1 | 4.69 | 3.32 | 4.86
AUUCGCCUAGGUUAUCGGGUG [Fam2.2 aminoacylation ribozyme variant] | 6.76 | 5.88 | 42.5 | 4.33 | 3.77 | 5.77
CCACACUGCAAGCAACCGGUC [Fam1B.1 aminoacylation ribozyme variant] | 1.25 | 1.07 | 0.966 | 1.79 | 1.53 | 1.49
AUUACCCUGGUCAGCUAGUGA [Fam2.1 aminoacylation ribozyme variant] | 3.32 | 3.12 | 6.76 | 2.34 | 2.53 | 3.32
AUUCACCUAGGUCGUCGGGUA [Fam2.2 aminoacylation ribozyme variant] | 2.71 | 1.95 | 6.61 | 1.95 | 1.85 | 2.24
CCACACUUCGAGAAAUCGGUC [Fam1B.1 aminoacylation ribozyme variant] | 1.12 | 0.812 | 0.511 | 0.976 | 0.951 | 1.18
AAGUUGGCUAGUAGUCGCAAG [Fam3.1 aminoacylation ribozyme variant] | 1.65 | 1.51 | 2.98 | 1.65 | 1.65 | 1.21
AUUCCCCUAGGUCAUCCGGUG [Fam2.2 aminoacylation ribozyme variant] | 51.5 | 39.5 | 295 | 26.9 | 27.6 | 38.5
CCACACGUCACGCAAUCGGUC [Fam1B.1 aminoacylation ribozyme variant] | 1.84 | 1.95 | 3.73 | 2.16 | 1.58 | 2.03
AUUACCCGGCUCAUCGAGUGA [Fam2.1 aminoacylation ribozyme variant] | 1.71 | 1.61 | 0.746 | 1.72 | 1.79 | 1.72
CCACACUUCAAGCAAUCGAAC [Fam1B.1 aminoacylation ribozyme variant] | 0.41 | 0.578 | 0.953 | 0.76 | 0.557 | 0.402
AUUCACCUAGAUCAUCGUGUG [Fam2.2 aminoacylation ribozyme variant] | 1.38 | 1.06 | 1.49 | 0.999 | 0.956 | 1.36
UUUCAUCUAGGUCAUCGGGUG [Fam2.2 aminoacylation ribozyme variant] | 6.45 | 6.47 | 33.7 | 4.51 | 4.37 | 5.04
AUUCACGUAGUUCAUCGGGUG [Fam2.2 aminoacylation ribozyme variant] | 3.88 | 4.72 | 21.9 | 3.45 | 3.07 | 3.49
AUUCACCUAGCUCAUCGCGUG [Fam2.2 aminoacylation ribozyme variant] | 6.1 | 5.18 | 34.7 | 3.28 | 2.98 | 4.26

Sequence | self-aminoacylation (biotinyl-Leu-oxazolone) | self-aminoacylation (biotinyl-Trp-oxazolone) | self-aminoacylation (biotinyl-Phe-oxazolone) | self-aminoacylation (biotinyl-Val-oxazolone) | self-aminoacylation (biotinyl-Ile-oxazolone) | self-aminoacylation (biotinyl-Met-oxazolone)
AAUACCCUGGUCACCGAGUGA [Fam2.1 aminoacylation ribozyme variant] | 6.58 | 6.81 | 39.1 | 3.33 | 4.13 | 6.98
AUUCACGUAGGUCAUCGGUUG [Fam2.2 aminoacylation ribozyme variant] | 1.35 | 0.72 | 4.98 | 1.24 | 1.2 | 1.23
AUUCACCGAGGUCCUCGGGUG [Fam2.2 aminoacylation ribozyme variant] | 14.6 | 9.2 | 84.6 | 6.63 | 6.76 | 11.3
ACGUUUGCUAAUAGUCGCACG [Fam3.1 aminoacylation ribozyme variant] | 2.26 | 2.13 | 3.42 | 2.05 | 2.43 | 2.53
AAUUUGGCUAAUAGUCGCAAG [Fam3.1 aminoacylation ribozyme variant] | 1.96 | 1.99 | 2.14 | 1.7 | 1.79 | 1.82
AUGUUUGCUAAUAGUAGCAAG [Fam3.1 aminoacylation ribozyme variant] | 0.912 | 0.911 | 1.67 | 1.36 | 1.29 | 1.34
AUUACCCUGGUCAAUGAGUGA [Fam2.1 aminoacylation ribozyme variant] | 6.7 | 8.83 | 30.9 | 3.7 | 3.46 | 7.16
AUUCACCUAGAUCAUCGGGCG [Fam2.2 aminoacylation ribozyme variant] | 2.33 | 1.28 | 8.81 | 1.93 | 1.96 | 3.12
AUUACCCUGGGCAGCGAGUGA [Fam2.1 aminoacylation ribozyme variant] | 8.78 | 9.57 | 34.6 | 5.64 | 5.87 | 9.21
AAGUUUGCUAAUAUUCGUAAG [Fam3.1 aminoacylation ribozyme variant] | 0.636 | 0.911 | 0.919 | 0.779 | 0.83 | 0.616
AUUACUCUGGUCAUCGAGUCA [Fam2.1 aminoacylation ribozyme variant] | 0.928 | 0.628 | 1.04 | 0.978 | 1.09 | 0.944
AUGCACCUAGCUCAUCGGGUG [Fam2.2 aminoacylation ribozyme variant] | 2.11 | 2.72 | 3.64 | 2.4 | 1.62 | 1.57
AUUACCAUGAUCAUCGAGUGA [Fam2.1 aminoacylation ribozyme variant] | 11.6 | 14.6 | 56.1 | 5.53 | 5.54 | 11.1
AUUACCCCGGCCAUCGAGUGA [Fam2.1 aminoacylation ribozyme variant] | 5.86 | 5.24 | 20.7 | 4.34 | 2.68 | 4.03
AUUACCCAGGACAUCGAGUGA [Fam2.1 aminoacylation ribozyme variant] | 7.26 | 8.66 | 56.4 | 3.9 | 3.56 | 8.33
CCACACUUCAAGCAAGCGGUC [Fam1B.1 aminoacylation ribozyme variant] | 0.785 | 0.62 | 0.769 | 0.961 | 0.87 | 0.791
AUUCACCUCGGUGAUCGGGUG [Fam2.2 aminoacylation ribozyme variant] | 5.47 | 6 | 28.3 | 4.6 | 4.21 | 4.66
AUUCACCUAGGUCAUCGGGGU [Fam2.2 aminoacylation ribozyme variant] | 12.2 | 7.01 | 40.5 | 5.09 | 5.09 | 7.67
AAGUUUACUAAUGGUCGCAAG [Fam3.1 aminoacylation ribozyme variant] | 1.47 | 2.06 | 1.64 | 1.1 | 1.59 | 1.28
AUUCACCUAGCUCAGCGGGUG [Fam2.2 aminoacylation ribozyme variant] | 3.49 | 2.83 | 10.6 | 2.09 | 2.08 | 2.68
ACUACCCUGGCCAUCGAGUGA [Fam2.1 aminoacylation ribozyme variant] | 6.69 | 7.18 | 27.3 | 3.77 | 3.53 | 4.33
CUACGUCUAACAAUCGGUCUG [Fam1A.1 aminoacylation ribozyme variant] | 0.941 | 0.703 | 1.21 | 0.856 | 0.89 | 0.918
AUUCAUCUAGGUGAUCGGGUG [Fam2.2 aminoacylation ribozyme variant] | 3.57 | 3.76 | 20.3 | 2.54 | 2.4 | 2.85
AUUCACGUAGAUCAUCGGGUG [Fam2.2 aminoacylation ribozyme variant] | 5.42 | 4.96 | 29.6 | 3.9 | 4.08 | 5.1
AUUCACCUAGGUCACUGGGUG [Fam2.2 aminoacylation ribozyme variant] | 3.93 | 2.52 | 19.7 | 1.72 | 1.8 | 2.82
